# Substitutions are numbered along the chain they refer to.
# B1: NRC3_wobSeed44_DR1_A5T_o1 (dsDNA)
# DNA 1: GCTGTATGAGGTTAAAGATCAGGGAACGTGGCGTCGGCGATTGACAGCGTAGAATGAAGG
# DNA 2: CCTTCATTCTACGCTGTCAATCGCCGACGCCACGTTCCCTGATCTTTAACCTCATACAGC
# B2: NRC3_wobSeed44_DR1_G17T_o1 (dsDNA)
# DNA 1: B1 DNA 1 with T5A, G17T
# DNA 2: B1 DNA 2 with C44A, A56T
# B3: NRC3_wobSeed28_DR1_A14T_o1 (dsDNA)
# DNA 1: GCCCTACTGGGCCTAAGGTCATTGATTCCAATGCTCGCGATTGACAGCGTAGAATGAAGG
# DNA 2: CCTTCATTCTACGCTGTCAATCGCGAGCATTGGAATCAATGACCTTAGGCCCAGTAGGGC
# B4: NRC3_wobSeed135_DR5_A29G_o1 (dsDNA)
# DNA 1: GCCGAACTAGGTCATTGACAGGACAGTGGATAGTAAGCGATTGACAGCGTAGAATGAAGG
# DNA 2: CCTTCATTCTACGCTGTCAATCGCTTACTATCCACTGTCCTGTCAATGACCTAGTTCGGC
# B5: NRC3_wobSeed1_DR0_A20T_o1 (dsDNA)
# DNA 1: GCCAAACTAGGTCAAGGTCTAAGTCGGTTTGTGCCAGCGATTGACAGCGTAGAATGAAGG
# DNA 2: CCTTCATTCTACGCTGTCAATCGCTGGCACAAACCGACTTAGACCTTGACCTAGTTTGGC
# B6: NRC3_wobSeed134_DR5_T23C_o1 (dsDNA)
# DNA 1: GCGCTGCTAGGTCAACTGATGGCCAGCTAAAGCTCGGCGATTGACAGCGTAGAATGAAGG
# DNA 2: CCTTCATTCTACGCTGTCAATCGCCGAGCTTTAGCTGGCCATCAGTTGACCTAGCAGCGC
# B7: NRC3_wobSeed76_DR3_G9C_o1 (dsDNA)
# DNA 1: GCCCTACTCGGCCAAAAAGGTCATTGATGCCGATAAGCGATTGACAGCGTAGAATGAAGG
# DNA 2: CCTTCATTCTACGCTGTCAATCGCTTATCGGCATCAATGACCTTTTTGGCCGAGTAGGGC
# B8: NRC3_wobSeed76_DR3_A17G_o1 (dsDNA)
# DNA 1: B7 DNA 1 with C9G, A17G
# DNA 2: B7 DNA 2 with T44C, G52C
# B9: NRC3_wobSeed76_DR3_T5A_o1 (dsDNA)
# DNA 1: B7 DNA 1 with T5A, C9G
# DNA 2: B7 DNA 2 with G52C, A56T
# B10: NRC3_wobSeed113_DR4_G29C_o1 (dsDNA)
# DNA 1: GCATATGTAGGTTAGCTGGGGTCATTCACACTAGGCGCGATTGACAGCGTAGAATGAAGG
# DNA 2: CCTTCATTCTACGCTGTCAATCGCGCCTAGTGTGAATGACCCCAGCTAACCTACATATGC
# B11: NRC3_wobSeed88_DR3_G20C_o1 (dsDNA)
# DNA 1: GCTAGCCTAGGTCATGCGGCCCAGTATAGTGTCGGCGCGATTGACAGCGTAGAATGAAGG
# DNA 2: CCTTCATTCTACGCTGTCAATCGCGCCGACACTATACTGGGCCGCATGACCTAGGCTAGC
# B12: NRC3_wobSeed50_DR2_G11T_o1 (dsDNA)
# DNA 1: GCCCTAGTTGTTCAGGAGGTCACACACCGGATATGAGCGATTGACAGCGTAGAATGAAGG
# DNA 2: CCTTCATTCTACGCTGTCAATCGCTCATATCCGGTGTGTGACCTCCTGAACAACTAGGGC
# B13: NRC3_wobSeed12_DR0_T19C_o1 (dsDNA)
# DNA 1: GCCCGACTGGGGCAAGGTCACCATAACGCACAGCCAGCGATTGACAGCGTAGAATGAAGG
# DNA 2: CCTTCATTCTACGCTGTCAATCGCTGGCTGTGCGTTATGGTGACCTTGCCCCAGTCGGGC
# B14: NRC3_wobSeed46_DR1_A25C_o1 (dsDNA)
# DNA 1: GCTTACCAAGGTGAAAGGTCGTTGCTGCACGCCTTGGCGATTGACAGCGTAGAATGAAGG
# DNA 2: CCTTCATTCTACGCTGTCAATCGCCAAGGCGTGCAGCAACGACCTTTCACCTTGGTAAGC
# B15: NRC3_wobSeed46_DR1_A5G_o1 (dsDNA)
# DNA 1: B14 DNA 1 with A5G, C25A
# DNA 2: B14 DNA 2 with G36T, T56C
# B16: NRC3_wobSeed87_DR3_A23C_o1 (dsDNA)
# DNA 1: GCCGAACTAGGTCATCCAGGACCGTGAATACATTGAGCGATTGACAGCGTAGAATGAAGG
# DNA 2: CCTTCATTCTACGCTGTCAATCGCTCAATGTATTCACGGTCCTGGATGACCTAGTTCGGC
# B17: NRC3_wobSeed87_DR3_T15C_o1 (dsDNA)
# DNA 1: B16 DNA 1 with T15C, C23A
# DNA 2: B16 DNA 2 with G38T, A46G
# B18: NRC3_wobSeed136_DR5_T16A_o1 (dsDNA)
# DNA 1: GCTAGCCTAGGTCATACAGGGGCCAGTATAGAAAGCGCGATTGACAGCGTAGAATGAAGG
# DNA 2: CCTTCATTCTACGCTGTCAATCGCGCTTTCTATACTGGCCCCTGTATGACCTAGGCTAGC
# B19: NRC3_wobSeed112_DR4_G15C_o1 (dsDNA)
# DNA 1: GCTAGCCTAGGTCACATCGGGCCAGTATACGCTATAGCGATTGACAGCGTAGAATGAAGG
# DNA 2: CCTTCATTCTACGCTGTCAATCGCTATAGCGTATACTGGCCCGATGTGACCTAGGCTAGC
# B20: NRC3_wobSeed82_DR3_A18C_o1 (dsDNA)
# DNA 1: GCATCGAAAGGTCGACGCGGTGAGTATACACCGTTTGCGATTGACAGCGTAGAATGAAGG
# DNA 2: CCTTCATTCTACGCTGTCAATCGCAAACGGTGTATACTCACCGCGTCGACCTTTCGATGC
# B21: NRC3_wobSeed39_DR1_A16G_o1 (dsDNA)
# DNA 1: GCCGAACTAGGTCAAGGGACAGTGAAAGGCGACGTAGCGATTGACAGCGTAGAATGAAGG
# DNA 2: CCTTCATTCTACGCTGTCAATCGCTACGTCGCCTTTCACTGTCCCTTGACCTAGTTCGGC
# B22: NRC3_wobSeed99_DR4_G16C_o1 (dsDNA)
# DNA 1: GCTCTCGGAGGACACCAAAGGTCAGAGCTCGACATCGCGATTGACAGCGTAGAATGAAGG
# DNA 2: CCTTCATTCTACGCTGTCAATCGCGATGTCGAGCTCTGACCTTTGGTGTCCTCCGAGAGC
# B23: NRC3_wobSeed99_DR4_G16T_o1 (dsDNA)
# DNA 1: B22 DNA 1 with C16T
# DNA 2: B22 DNA 2 with G45A
# B24: NRC3_wobSeed137_DR5_A5T_o1 (dsDNA)
# DNA 1: GCATTTGTAGGTTACATCCGGGTCATTCAGGCTATGGCGATTGACAGCGTAGAATGAAGG
# DNA 2: CCTTCATTCTACGCTGTCAATCGCCATAGCCTGAATGACCCGGATGTAACCTACAAATGC
# B25: NRC3_wobSeed4_DR0_C7G_o1 (dsDNA)
# DNA 1: GCCCTAGTGGGCCAAGGTCATTGATCAGTCAAAGCAGCGATTGACAGCGTAGAATGAAGG
# DNA 2: CCTTCATTCTACGCTGTCAATCGCTGCTTTGACTGATCAATGACCTTGGCCCACTAGGGC
# B26: NRC3_wobSeed110_DR4_A15T_o1 (dsDNA)
# DNA 1: GCTCTGCTAGGTCATCGATGGTCAGCTAATCTGCTAGCGATTGACAGCGTAGAATGAAGG
# DNA 2: CCTTCATTCTACGCTGTCAATCGCTAGCAGATTAGCTGACCATCGATGACCTAGCAGAGC
# B27: NRC3_wobSeed110_DR4_C26T_o1 (dsDNA)
# DNA 1: B26 DNA 1 with T15A, C26T
# DNA 2: B26 DNA 2 with G35A, A46T
# B28: NRC3_wobSeed27_DR1_A9T_o1 (dsDNA)
# DNA 1: GCACTCGGTGGACAAAGGTCAGAGCTACGCCAGTGAGCGATTGACAGCGTAGAATGAAGG
# DNA 2: CCTTCATTCTACGCTGTCAATCGCTCACTGGCGTAGCTCTGACCTTTGTCCACCGAGTGC
# B29: NRC3_wobSeed13_DR0_C13T_o1 (dsDNA)
# DNA 1: GCCGTCCAAGGTTAAGGTCAGTGAAAGAGACTCGAAGCGATTGACAGCGTAGAATGAAGG
# DNA 2: CCTTCATTCTACGCTGTCAATCGCTTCGAGTCTCTTTCACTGACCTTAACCTTGGACGGC
# B30: NRC3_wobSeed16_DR0_C7A_o1 (dsDNA)
# DNA 1: GCCAGCATAGGTCAGGGCCAGTATAGGAGGAACGTTGCGATTGACAGCGTAGAATGAAGG
# DNA 2: CCTTCATTCTACGCTGTCAATCGCAACGTTCCTCCTATACTGGCCCTGACCTATGCTGGC
# B31: NRC3_wobSeed37_DR1_A14G_o1 (dsDNA)
# DNA 1: GCCGTCCAAGGTCGAAGGTCAGTGAAGAGATGACGGGCGATTGACAGCGTAGAATGAAGG
# DNA 2: CCTTCATTCTACGCTGTCAATCGCCCGTCATCTCTTCACTGACCTTCGACCTTGGACGGC
# B32: NRC3_wobSeed15_DR0_G23A_o1 (dsDNA)
# DNA 1: GCCGAACTAGGTCAAGGACAGTAAATCTCCGCACGCGCGATTGACAGCGTAGAATGAAGG
# DNA 2: CCTTCATTCTACGCTGTCAATCGCGCGTGCGGAGATTTACTGTCCTTGACCTAGTTCGGC
# B33: NRC3_wobSeed15_DR0_A18C_o1 (dsDNA)
# DNA 1: B32 DNA 1 with A18C, A23G
# DNA 2: B32 DNA 2 with T38C, T43G
# Biological target: FXR:RXRa (Homo sapiens, UniProt Q96RI1;P19793 full;full)
# Sequence (Q96RI1 whole entry, chain 1 of 2): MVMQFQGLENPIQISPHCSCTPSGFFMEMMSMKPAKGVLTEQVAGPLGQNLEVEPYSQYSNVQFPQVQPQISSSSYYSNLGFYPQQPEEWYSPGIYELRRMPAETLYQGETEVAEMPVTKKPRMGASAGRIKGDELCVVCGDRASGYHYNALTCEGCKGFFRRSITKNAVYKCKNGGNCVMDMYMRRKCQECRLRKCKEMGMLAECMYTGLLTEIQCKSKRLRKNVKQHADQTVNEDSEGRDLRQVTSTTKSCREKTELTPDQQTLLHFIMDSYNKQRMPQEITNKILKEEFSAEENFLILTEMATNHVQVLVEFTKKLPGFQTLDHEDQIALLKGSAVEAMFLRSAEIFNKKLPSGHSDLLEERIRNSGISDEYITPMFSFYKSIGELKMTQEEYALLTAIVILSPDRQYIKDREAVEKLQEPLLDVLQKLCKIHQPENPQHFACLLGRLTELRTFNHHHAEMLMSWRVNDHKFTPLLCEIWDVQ
# Sequence (P19793 whole entry, chain 2 of 2): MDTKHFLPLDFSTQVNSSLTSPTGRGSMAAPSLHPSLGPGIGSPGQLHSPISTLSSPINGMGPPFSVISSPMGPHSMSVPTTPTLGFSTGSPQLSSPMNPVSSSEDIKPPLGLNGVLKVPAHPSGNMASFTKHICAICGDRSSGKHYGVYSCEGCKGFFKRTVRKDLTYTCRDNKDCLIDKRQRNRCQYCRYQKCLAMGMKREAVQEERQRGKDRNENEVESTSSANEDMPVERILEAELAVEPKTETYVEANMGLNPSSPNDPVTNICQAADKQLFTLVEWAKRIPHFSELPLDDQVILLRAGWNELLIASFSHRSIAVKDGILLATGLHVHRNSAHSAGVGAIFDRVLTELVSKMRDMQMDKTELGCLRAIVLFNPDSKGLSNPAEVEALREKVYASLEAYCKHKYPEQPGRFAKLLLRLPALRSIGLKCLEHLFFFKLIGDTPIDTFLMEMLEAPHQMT
# Test: no ligand; PBM; 270 nM : 90 nM RXRa; PBS pH 7.4, 2% milk, 0.02% Triton X-100, 1 mM DTT, BSA, 0.4 mg/ml salmon testes DNA
# Conditions: tags: His kept;His cleaved; copies: 1;1; label: surface-attached array probe
# Summary of the method: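 Binding buffer was PBS pH 7.4 with 2% milk, 0.02% Triton X-100, 1 mM DTT, 0.2 mg/mL BSA and 0.4 mg/ml salmon testes DNA. In it, ligand-free nuclear receptor dimers were incubated 1 h on custom Agilent 4×180K protein-binding microarrays carrying double-stranded probes. Antibodies against each partner (one per run) detected binding, and z-scores were calculated against random background probes after regression normalization of scanned fluorescence.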
row,Binder,binding signal
1,B1,3.64 PBM z-score against 500 random probes
2,B2,3.09 PBM z-score against 500 random probes
3,B3,3.15 PBM z-score against 500 random probes
4,B4,4.02 PBM z-score against 500 random probes
5,B5,3.61 PBM z-score against 500 random probes
6,B6,3.9 PBM z-score against 500 random probes
7,B7,3.98 PBM z-score against 500 random probes
8,B8,3.31 PBM z-score against 500 random probes
9,B9,3.39 PBM z-score against 500 random probes
10,B10,4.06 PBM z-score against 500 random probes
11,B11,3.84 PBM z-score against 500 random probes
12,B12,3.71 PBM z-score against 500 random probes
13,B13,3.29 PBM z-score against 500 random probes
14,B14,3.81 PBM z-score against 500 random probes
15,B15,3.55 PBM z-score against 500 random probes
16,B16,3.93 PBM z-score against 500 random probes
17,B17,3.58 PBM z-score against 500 random probes

row,Binder,binding signal
1,B18,4.09 PBM z-score against 500 random probes
2,B19,3.96 PBM z-score against 500 random probes
3,B20,3.87 PBM z-score against 500 random probes
4,B21,3.42 PBM z-score against 500 random probes
5,B22,3.18 PBM z-score against 500 random probes
6,B23,3.03 PBM z-score against 500 random probes
7,B24,3.26 PBM z-score against 500 random probes
8,B25,3.34 PBM z-score against 500 random probes
9,B26,3.45 PBM z-score against 500 random probes
10,B27,3.07 PBM z-score against 500 random probes
11,B28,3.23 PBM z-score against 500 random probes
12,B29,4.12 PBM z-score against 500 random probes
13,B30,3.48 PBM z-score against 500 random probes
14,B31,3.76 PBM z-score against 500 random probes
15,B32,3.73 PBM z-score against 500 random probes
16,B33,3.52 PBM z-score against 500 random probes

# Reference: publication PMC6555819, “Comprehensive study of nuclear receptor DNA binding provides a revised framework for understanding receptor specificity”
